From publication PMC10090079

How the values were obtained:
[1] = target: OsCas12f1 from Oscillibacter sp. (Oscillibacter sp.); assay: SEC; Cas12f1 RNP assembled in vitro at 4:3 molar ratio protein:sgRNA in buffer D (25 mM Tris-HCl pH 8.0, 150 mM NaCl, 2 mM DTT, 1 mM MgCl2) at 37 °C for 30 min; Superdex 200 Increase 10/300 equilibrated with buffer D; calibrated with Gel Filtration Standard (Bio-Rad); dimer in presence of sgRNA
[2] = target: RhCas12f1 from Ruminiclostridium herbifermentans (Ruminiclostridium herbifermentans); assay: as above

| stoichiometry N [1] | stoichiometry N [2] | Substance |
| --- | --- | --- |
| 2 | – | OsCas12f1 from Oscillibacter sp. (enzyme) |
| – | 2 | RhCas12f1 from Ruminiclostridium herbifermentans (enzyme) |
